Laboratory results taken from patent US20240174727A1, “LONG-ACTING NATRIURETIC PEPTIDES AND USES THEREOF” (Eli Lilly and Company, priority 2022, published 2024).

Key:
rat NPRA = target: T1, rat NPRA (rat, UniProt P18910 29-1057); experiment: cell-based or functional assay
T1 sequence (looked up): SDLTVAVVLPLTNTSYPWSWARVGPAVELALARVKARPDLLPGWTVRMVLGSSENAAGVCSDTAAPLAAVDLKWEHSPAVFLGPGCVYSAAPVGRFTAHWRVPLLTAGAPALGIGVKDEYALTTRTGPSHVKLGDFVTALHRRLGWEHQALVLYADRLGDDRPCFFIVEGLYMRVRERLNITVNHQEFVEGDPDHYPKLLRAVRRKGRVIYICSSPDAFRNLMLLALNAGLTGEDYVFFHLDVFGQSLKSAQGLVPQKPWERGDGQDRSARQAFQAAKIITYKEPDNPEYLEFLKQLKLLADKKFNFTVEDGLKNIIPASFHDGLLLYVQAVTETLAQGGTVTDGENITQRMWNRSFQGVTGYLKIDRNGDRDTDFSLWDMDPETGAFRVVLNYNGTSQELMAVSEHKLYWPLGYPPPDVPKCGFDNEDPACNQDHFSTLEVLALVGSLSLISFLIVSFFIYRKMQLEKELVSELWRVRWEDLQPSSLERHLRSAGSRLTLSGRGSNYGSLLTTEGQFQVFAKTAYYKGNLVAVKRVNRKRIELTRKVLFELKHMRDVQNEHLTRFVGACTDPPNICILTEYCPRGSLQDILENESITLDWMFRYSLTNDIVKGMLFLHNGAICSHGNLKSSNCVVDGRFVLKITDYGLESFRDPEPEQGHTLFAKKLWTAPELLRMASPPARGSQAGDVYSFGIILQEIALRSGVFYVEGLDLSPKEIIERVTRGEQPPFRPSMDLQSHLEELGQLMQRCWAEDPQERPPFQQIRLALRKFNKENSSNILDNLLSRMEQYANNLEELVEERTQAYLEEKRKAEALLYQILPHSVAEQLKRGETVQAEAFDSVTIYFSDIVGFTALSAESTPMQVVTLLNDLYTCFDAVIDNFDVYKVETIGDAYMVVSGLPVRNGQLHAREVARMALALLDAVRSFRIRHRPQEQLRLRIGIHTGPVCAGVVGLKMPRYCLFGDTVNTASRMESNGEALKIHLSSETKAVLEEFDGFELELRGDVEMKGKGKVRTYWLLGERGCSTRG

human NPRA = target: T2, human NPRA (human, UniProt P16066 33-1061); experiment: cell-based or functional assay
T2 sequence (looked up): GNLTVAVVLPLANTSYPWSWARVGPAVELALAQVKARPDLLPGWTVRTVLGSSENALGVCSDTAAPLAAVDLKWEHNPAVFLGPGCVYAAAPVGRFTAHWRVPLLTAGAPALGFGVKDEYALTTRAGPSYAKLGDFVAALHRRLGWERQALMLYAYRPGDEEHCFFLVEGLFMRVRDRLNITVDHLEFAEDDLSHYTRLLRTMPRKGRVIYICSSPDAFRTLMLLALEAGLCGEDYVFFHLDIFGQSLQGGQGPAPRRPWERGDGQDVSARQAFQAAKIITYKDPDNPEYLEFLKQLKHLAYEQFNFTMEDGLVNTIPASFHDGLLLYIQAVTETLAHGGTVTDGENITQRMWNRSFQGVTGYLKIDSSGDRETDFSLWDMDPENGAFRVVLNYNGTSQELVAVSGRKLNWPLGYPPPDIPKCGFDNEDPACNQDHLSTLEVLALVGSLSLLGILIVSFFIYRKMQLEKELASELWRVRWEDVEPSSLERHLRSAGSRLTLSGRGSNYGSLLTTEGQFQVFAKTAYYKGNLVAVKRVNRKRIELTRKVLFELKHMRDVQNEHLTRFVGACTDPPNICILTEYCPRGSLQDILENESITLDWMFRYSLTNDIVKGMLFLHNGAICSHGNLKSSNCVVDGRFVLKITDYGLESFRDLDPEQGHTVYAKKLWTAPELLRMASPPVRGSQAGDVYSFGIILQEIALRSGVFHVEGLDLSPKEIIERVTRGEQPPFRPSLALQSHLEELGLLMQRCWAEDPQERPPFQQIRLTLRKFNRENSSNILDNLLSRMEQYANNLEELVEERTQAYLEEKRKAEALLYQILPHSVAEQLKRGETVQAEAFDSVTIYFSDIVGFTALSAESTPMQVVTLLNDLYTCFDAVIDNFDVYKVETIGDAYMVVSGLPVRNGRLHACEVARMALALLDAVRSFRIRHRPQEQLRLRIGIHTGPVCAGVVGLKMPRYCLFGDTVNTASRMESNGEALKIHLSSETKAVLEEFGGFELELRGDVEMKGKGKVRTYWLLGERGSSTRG

| Binder | cGMP Assay (EC50, pM) w/BSA, rNPRA (rat NPRA) | cGMP Assay (EC50, pM) w/Casein, rNPRA (rat NPRA) | cGMP Assay (EC50, pM) w/BSA, hNPRA (human NPRA) | cGMP Assay (EC50, pM) w/Casein, hNPRA (human NPRA) |
| --- | --- | --- | --- | --- |
| EKPRSSCFGKRIDRIGHQSGLGCPSFRHSGSPSSGAPPPSG (N-terminus acylated with HOOC-(CH2)18-CO-(γGlu)-; PEG24 after EKEKEKG; thioacetal linkage between the two bracketed Cys; C-terminal amide) [HOOC-(CH2)18-CO-(γGlu)-EKEKEKG-PEG24-EKPRSS[CFGKRIDRIGHQSGLGC]PSFRHSGSPSSGAPPPSG-NH2] | 260000 pM | 9390 pM | 5300 pM | 704 pM |
| EKPRSSCFGKGIDRIGHQSGLGCPSFRHSGSPSSGAPPPSG (N-terminus acylated with HOOC-(CH2)18-CO-(γGlu)-; PEG24 after EKEKEKG; thioacetal linkage between the two bracketed Cys; C-terminal amide) [HOOC-(CH2)18-CO-(γGlu)-EKEKEKG-PEG24-EKPRSS[CFGKGIDRIGHQSGLGC]PSFRHSGSPSSGAPPPSG-NH2] | 1.45e+06 pM | 580000 pM | 302000 pM | 38700 pM |
